The assay concerns the target T1, recombinant, soluble murine Jagged1 (mouse, UniProt Q9QXX0).
T1 construct: Jagged1, mouse, recombinant soluble form; also called recombinant mouse Jagged1
Put plainly: ELISA; plates coated with 500 ng/mL recombinant soluble murine Jagged1 in PBS; antibodies titrated 2000-15.63 ng/mL in PBSTM, 1.5 h at RT; detected with ALP-conjugated goat anti-murine Fc. Particulars: both partners purified. (ELISA stands for enzyme-linked immunosorbent assay.)

T1 sequence (Q9QXX0 34-1067): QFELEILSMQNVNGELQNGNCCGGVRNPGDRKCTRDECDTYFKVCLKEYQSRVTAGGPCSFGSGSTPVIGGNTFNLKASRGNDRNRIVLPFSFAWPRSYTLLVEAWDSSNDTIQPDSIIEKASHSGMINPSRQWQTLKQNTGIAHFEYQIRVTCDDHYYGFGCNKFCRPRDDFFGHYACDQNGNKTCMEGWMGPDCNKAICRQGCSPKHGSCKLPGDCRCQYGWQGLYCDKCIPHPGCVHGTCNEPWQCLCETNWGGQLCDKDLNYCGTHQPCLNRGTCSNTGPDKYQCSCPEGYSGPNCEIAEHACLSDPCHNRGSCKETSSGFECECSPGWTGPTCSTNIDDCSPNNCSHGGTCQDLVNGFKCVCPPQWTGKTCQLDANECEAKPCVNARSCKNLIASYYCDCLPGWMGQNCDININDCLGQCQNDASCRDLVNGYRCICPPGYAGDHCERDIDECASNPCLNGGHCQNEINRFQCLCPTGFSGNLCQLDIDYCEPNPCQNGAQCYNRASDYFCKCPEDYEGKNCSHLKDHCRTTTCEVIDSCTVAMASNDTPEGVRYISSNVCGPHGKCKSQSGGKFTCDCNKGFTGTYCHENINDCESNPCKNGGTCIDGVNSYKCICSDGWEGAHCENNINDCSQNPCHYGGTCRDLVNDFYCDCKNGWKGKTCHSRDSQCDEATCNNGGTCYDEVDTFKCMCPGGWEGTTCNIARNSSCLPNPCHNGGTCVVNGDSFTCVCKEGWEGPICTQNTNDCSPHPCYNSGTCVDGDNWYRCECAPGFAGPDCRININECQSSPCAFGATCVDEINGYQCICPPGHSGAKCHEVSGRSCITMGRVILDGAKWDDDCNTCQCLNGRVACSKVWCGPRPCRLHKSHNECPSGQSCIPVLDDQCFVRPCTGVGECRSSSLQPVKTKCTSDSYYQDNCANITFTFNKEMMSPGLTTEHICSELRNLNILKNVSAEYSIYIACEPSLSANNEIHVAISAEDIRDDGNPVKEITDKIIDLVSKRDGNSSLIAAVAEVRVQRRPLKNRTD

B1: anti-JAG1.b70 mouse immunoglobulin G2a (mIgG2a), WT (antibody, V domains shown)
VH: EVQLVESGGGLVQPGGSLRLSCAASGFTFSNYGIHWVRQAPGKGLEWVGWITPDGGYTDYADSVKGRFTISADTSKNTAYLQMNSLRAEDTAVYYCARAGTLFAYWGQGTLVTVSS
VL: DIQMTQSPSSLSASVGDRVTITCRASQDVSTAVAWYQQKPGKAPKLLIYSASFLYSGVPSRFSGSGSGTDFTLTISSLQPEDFATYYCQQYYTTATTFGQGTKVEIK
notes: variable heavy domain of anti-JAG1.b70; constant domains of the mouse IgG2a heavy chain, wild type; variable light domain of anti-JAG1.b70; constant domain of the murine kappa light chain; Phage-display selected antibody in mIgG2a format; A batch provided by Genentech was used in animals; WT and PGLALA variants for the ELISAs were produced in HEK293E; The constant domains of the Fab in PDB 5BO1 …
Turning to B1, the binding result is “binds”.

B2: anti-JAG1.b70 mIgG2a, PGLALA (P329G, L234A, L235A) (antibody, V domains shown)
VH: B1 VH
VL: B1 VL
notes: variable heavy domain as in the heavy chain of m1; constant domains of the mouse IgG2a heavy chain with PGLALA in the CH2 domain; variable light domain as in the light chain of m1; constant domain of the murine kappa light chain; also called PGLALA-engineered anti-JAG1; effector-negative anti-JAG1; source: HEK293E, transient co-transfection, purified (anti-murine kLC CaptureSelect, SEC)
On to B2, for which the binding result is on record as “binds”.

These data come from paper PMC10229650 (Nature Communications, 2023).
